Sequences and labels used below:
B1: PD1-IL2-R02-C03 (scFv)
scFv: QVQLVQSGAEVKKPGASVKVSCKASGYTFPRYHIHWVRQAPGQGLEWMGMINPSGGTTTYAQKFQGRVTMTRDTSTSTVYMELSSLRSEDTAVYYCARDTGLGYYYGSGDFDYWGQGTLVTVSSASGGGGSGGGGSGGGGSHASDIQMTQSPSSLSASVGDRVTITCRASQSISSWLAWYQQKPGKAPKLLIYAASSLQSGVPSRFSGSGSGTDFTLTISSLQPEDFATYYCQQSHSFPLTFGGGTKVEIK
notes: cell-free expressed, V5-tagged
B2: PD1-IL2-R02-A11 (scFv)
scFv: QVQLVQSGAEVKKPGASVKVSCKASGHTFTRYYMHWVRQAPGQGLEWMGIINPSGGYATYAQKFQGRVTMTRDTSTSTVYMELSSLRSEDTAVYYCASGWDVWGQGTLVTVSSASGGGGSGGGGSGGGGSHASDIQMTQSPSSLSASVGDRVTITCRASQSINSWLAWYQQKPGKAPKLLIYATSTLESGVPSRFSGSGSGTDFTLTISSLQPEDFATYYCQQSYSFPPTFGQGTKVEIK
B3: PD1-IL2-R02-B05 (scFv)
scFv: QVQLVQSGAEVKKPGASVKVSCKASGYTFTNYYIHWVRQAPGQGLEWMGIINPRAGYTSYALKFQGRVTMTRDTSTSTVYMELSSLRSEDTAVYYCAGGWLDWGQGTLVTVSSASGGGGSGGGGSGGGGSHASDIQMTQSPSSLSASVGDRVTITCRASQSISSWLAWYQQKPGKAPKLLIYAASSLQSGVPSRFSGSGSGTDFTLTISSLQPEDFATYYCQQSFTMPITFGQGTRLEIK
B4: PD1-IL2-R02-B07 (scFv)
scFv: QVQLVQSGAEVKKPGASVKVSCKASGDTFTRHYVHWVRQAPGQGLEWMGIINPSGGYASYAQKFQGRVTMTRDTSTSTVYMELSSLRSEDTAVYYCAAGLFIWGQGTLVTVSSASGGGGSGGGGSGGGGSHASDIQMTQSPSSLSASVGDRVTITCRASQSIGRWLAWYQQKPGKAPKLLIYSASNLETGVPSRFSGSGSGTDFTLTISSLQPEDFATYYCQQANSFPVTFGPGTKVDIK
B5: PD1-IL2-R06-E04 (scFv)
scFv: QVQLVQSGAEVKKPGASVKVSCKASGYTFTRYYIHWVRQAPGQGLEWMGWINAYNGDTNYAQKLQGRVTMTRDTSTSTVYMELSSLRSEDTAVYYCARDSYYYDSFDYWGQGTLVTVSSASGGGGSGGGGSGGGGSHASDIQMTQSPSSLSASVGDRVTITCRASQTITDWLAWYQQKPGKAPKLLIYGASNLQGGVPSRFSGSGSGTDFTLTISSLQPEDFATYYCQQYYSSWTFGQGTKVEIK
notes: as for B1
B6: PD1-IL2-R02-C02 (scFv)
scFv: QVQLVQSGAEVKKPGVSVKVSCKASGYTFPRSYIHWVRQAPGQGLEWMGWINPHSGDTYYAQNFQGRVTMTRDTSTSTVYMELSSLRSEDTAVYYCARDTGLGYYYGSGDFDYWGQGTLVTVSSASGGGGSGGGGSGGGGSHASDIQMTQSPSSLSASVGDRVTITCRASQSISRYLNWYQQKPGKAPKLLIYTASSLQSGVPSRFSGSGSGTDFTLTISSLQPEDFATYYCQQANRFPLTFGPGTKVDIK
notes: as for B1
B7: PD1-IL2-R07-A04 (scFv)
scFv: QVQLVQSGAEVKKPGASVKVSCKASGYTFTDYYMHWVRQAPGQGLEWMGIINPRAGYTSYALKFQGRVTMTRDTSTSTVYMELSSLRSEDTAVYYCTSGMDVWGQGTLVTVSSASGGGGSGGGGSGGGGSHASDIQMTQSPSSLSASVGDRVTITCRASQSISTWLAWYQQKPGKAPKLLIYAASSLQSGVPSRFSGSGSGTDFTLTISSLQPEDFATYYCQQSYSFPVTFGQGTKVEIK
B8: PD1-IL2-R02-A08 (scFv)
scFv: QVQLVQSGAEVKKPGASVKVSCKVSGYTFTSYDINWVRQAPGQGLEWMGWINPNSGDTGYAQKFQGRVTMTRDTSTSTVYMELSSLRSEDTAVYYCARDTGLGYYYGSGDFDYWGQGTLVTVSSASGGGGSGGGGSGGGGSHASDIQMTQSPSSLSASVGDRVTITCQASQDIHNYLNWYQQKPGKAPKLLIYDVSNLETGVPSRFSGSGSGTDFTLTISSLQPEDFATYYCQQAISFPLTFGGGTKVEIK
B9: PD1-R04-C10 (scFv)
chain: MSTSTEQKLISEEDLQVQLVQSGAEVKKPGASVKVSCKASGYTFTTYYMHWVRQAPGQGLEWMGIINPSGGGTLYAQKFQGRVTMTRDTSTSTVYMELSSLRSEDTAVYYCAAGLFIWGQGTTVTVSSASGGGGSGGGGSGGGGSHASDIVMTQSPDSLAVSLGERATINCKASQSLLHSSSNKNYLAWYQQKPGQPPKLLIYWASTRESGVPDRFSGSGSGTDFTLTISSLQAEDVAVYYCQQYYSTPITFGPGTKVDIKGSGLNDIFEAQKIEWHEGKPIPNPLLGLDST
B10: PD1-IL2-R07-A09 (scFv)
scFv: QVQLVQSGAEVKKPGASVKVSCKASGYTFTSYYMHWVRQAPGQGLEWMGIINPSDGSTTYAQSFQGRVTMTRDTSTSTVYMELSSLRSEDTAVYYCASGWDVWGQGTLVTVSSASGGGGSGGGGSGGGGSHASDIVMTQSPDSLAVSLGERATINCKSSQSVFSSANNKNYLAWYQQKPGQPPKLLIYWASTRESGVPDRFSGSGSGTDFTLTISSLQAEDVAVYYCQQYFGTPVTFGGGTKVEIK
notes: as for B1
B11: PD1-R07-A05 (scFv)
scFv: QVQLVQSGAEVKKPGASVKVSCKASGYTFTTYYVHWVRQAPGQGLEWMGIINPSGGSTSYAQNFQGRVTMTRDTSTSTVYMELSSLRSEDTAVYYCASGWDVWGQGTTVTVSSASGGGGSGGGGSGGGGSHASEIVMTQSPATLSVSPGERATLSCRASQSVNTYLAWYQQKPGQAPRLLIYGASTRATGIPARFSGSGSGTEFTLTISSLQSEDFAVYYCQQYGSSPVTFGQGTRLEIK
B12: PDL1-IFN-R01-C08 (scFv)
scFv: QVQLVQSGAEVKKPGASVKVSCKASGGTFSSYAISWVRQAPGQGLEWMGIIDPSVTYTRYAQKFQGRVTMTRDTSTSTVYMELSSLRSEDTAVYYCARSLFPTIFGVEVAFDIWGQGTLVTVSSASGGGGSGGGGSGGGGSHASDIQMTQSPSSLSASVGDRVTITCQASQDISNYLNWYQQKPGKAPKLLIYGASTLQSGVPSRFSGSGSGTDFTLTISSLQPEDFATYYCQQTYSTPITFGQGTKVEIK
notes: expressed cell-free as Myc tag + scFv + V5 tag
B13: PDL1-IFN-R01-A06 (scFv)
scFv: QVQLVQSGAEVKKPGASVKVSCKASGGTFSSYAISWVRQAPGQGLEWVGWMDPKSGNTGYAQKFQGRVTMTRDTSTSTVYMELSSLRSEDTAVYYCARSLFPTIFGVEVAFDIWGQGTLVTVSSASGGGGSGGGGSGGGGSHASDIQMTQSPSSLSASVGDRVTITCQASQDINNYLNWYQQKPGKAPKLLIYKASSLEPGVPSRFSGSGSGTDFTLTISSLQPEDFATYYCQKSNDVPFTFGQGTKVEIK
notes: as for B12
B14: AF4387 (other)
heavy 1: APTSSSTKKTQLQLEHLLLDLQMILNGINNYKNPKLTDMLTFEFYMPKKATELKHLQCLERELKPLEEVLNLAQSKNFHLRPRDLISNINVIVLELKGSETTFMCEYADETATIVEFLNRWITFCQSIISTLTGGGGSGGGGSGGGGSGGGGSQVQLVQSGAEVKKPGASVKVSCKASGYTFTDYYMHWVRQAPGQGLEWMGIINPRAGYTSYALKFQGRVTMTRDTSTSTVYMELSSLRSEDTAVYYCTSGWDVWGQGTLVTVSSAKTTAPSVYPLAPVCGDTTGSSVTLGCLVKGYFPEPVTLTWNSGSLSSGVHTFPAVLQSDLYTLSSSVTVTSSTWPSQSITCNVAHPASSTKVDKKIEPRGPTIKPCPPCKCPAPNAAGGPSVFIFPPKIKDVLMISLSPIVTCVVVDVSEDDPDVQISWFVNNVEVHTAQTQTHREDYNSTLRVVSALPIQHQDWMSGKEFKCKVNNKDLGAPIERTISKPKGSVRAPQVYVLPPPEEEMTKKQVTLTCMVTDFMPEDIYVEWTNNGKTELNYKNTEPVLDSDGSYFMYSDLRVEKKNWVERNSYSCSVVHEGLHNHHTTESFSRTPGK
heavy 2: QVQLVQSGAEVKKPGASVKVSCKASGYTFTDYYMHWVRQAPGQGLEWMGIINPRAGYTSYALKFQGRVTMTRDTSTSTVYMELSSLRSEDTAVYYCTSGWDVWGQGTLVTVSSAKTTAPSVYPLAPVCGDTTGSSVTLGCLVKGYFPEPVTLTWNSGSLSSGVHTFPAVLQSDLYTLSSSVTVTSSTWPSQSITCNVAHPASSTKVDKKIEPRGPTIKPCPPCKCPAPNAAGGPSVFIFPPKIKDVLMISLSPIVTCVVVDVSEDDPDVQISWFVNNVEVHTAQTQTHREDYNSTLRVVSALPIQHQDWMSGKEFKCKVNNKDLGAPIERTISKPKGSVRAPQVYVLPPPEKEMTKKQVSLTCLVKDFMPEDIYVEWTNNGKTELNYKNTEPVLKSDGSYFMYSKLTVEKKNWVERNSYSCSVVHEGLHNHHTTKSFSRTPGGGGSGGGSHHHHHH
light: DIQMTQSPSSLSASVGDRVTITCRASQSISTWLAWYQQKPGKAPKLLIYAASSLDSGVPSRFSGSGSGTDFTLTISSLQPEDFATYYCQQSYSFPVTFGQGTKVEIKRADAAPTVSIFPPSSEQLTSGGASVVCFLNNFYPKDINVKWKIDGSERQNGVLNSWTDQDSKDSTYSMSSTLTLTKDEYERHNSYTCEATHKTSTSPIVKSFNRNEC

Sequence of PD-1 (Q15116 25-167 limits assumed): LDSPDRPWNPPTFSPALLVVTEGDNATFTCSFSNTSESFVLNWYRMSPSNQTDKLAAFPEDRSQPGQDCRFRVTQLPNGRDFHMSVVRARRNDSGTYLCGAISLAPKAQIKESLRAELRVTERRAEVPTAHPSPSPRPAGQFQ
Sequence of PD-1-Fc (Q15116 25-167 limits assumed): as above

The target in the first experiment is T1, human IL-2 (human, UniProt P60568 21-153, biotin label in the IL2RB blocking assay).
T1 construct: also called biotin-labeled IL-2 (Acro Biosystems IL2-H82E4)
T1 sequence (P60568 21-153 limits assumed): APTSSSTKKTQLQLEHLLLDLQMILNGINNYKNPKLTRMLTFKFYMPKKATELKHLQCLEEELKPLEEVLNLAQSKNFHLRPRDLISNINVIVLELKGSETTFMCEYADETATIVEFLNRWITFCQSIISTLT
Kind of experiment: HTRF, IL-2:Fc-IL2RB.
Description: (§1) The PURExpress scFv proteins were used directly in HTRF binding assays and cell-based functional assays.
B1: the “IL2RB Blocking (HTRF signal)” value was 1210.
Turning to B2, the “IL2RB Blocking (HTRF signal)” value was determined as 1780.
On the same count and under the same terms, the result for B3 reads 1610.
As to B4, the “IL2RB Blocking (HTRF signal)” value turned out to be 1810.
Still for that read-out and setting: the result for B5 reads 1110.
Same read-out and setting: the result for B6 reads 1070.
The same measure, in the same setting: the result for B7 reads 1610; that for B8, 1610.
B9: the “IL2RB Blocking (HTRF signal)” value is 1550.
Turning to B10, the “IL2RB Blocking (HTRF signal)” value amounted to 910.
For the molecule B11, the “IL2RB Blocking (HTRF signal)” value was 1730.

The target in another experiment is T1, human IL-2. Kind of experiment: HTRF. A general note: Time-resolved FRET reads energy transfer from a long-lived donor to a nearby acceptor.
Description: as §1
B1: the “IL2 Binding (HTRF signal)” value was determined as 293.
Still for that read-out and setting: the result for B2 reads 1560.
Same read-out and setting: the result for B3 reads 2490; that for B4, 628.
As for B5, the “IL2 Binding (HTRF signal)” value was determined as 247.
For B6, the “IL2 Binding (HTRF signal)” value was 298.
For the molecule B7, the “IL2 Binding (HTRF signal)” value was 973.
Consider B8, for which the “IL2 Binding (HTRF signal)” value amounted to 520.
Still for that read-out and setting: the value for B9 was 4.
For B10, the “IL2 Binding (HTRF signal)” value was found to be 2040.
Regarding B11, the “IL2 Binding (HTRF signal)” value came to 19.

A further experiment concerns the target PD-1 (human, UniProt Q15116 25-167, limits assumed). Briefly: HTRF.
Description: as §1
As for B1, the “PD1 Binding (HTRF signal)” value is 1380.
Consider B2, for which the “PD1 Binding (HTRF signal)” value was 1620.
The same measure, in the same setting: the value for B3 was 1660.
As for B4, the “PD1 Binding (HTRF signal)” value was determined as 1680.
As to B5, the “PD1 Binding (HTRF signal)” value was 50.
Regarding B6, the “PD1 Binding (HTRF signal)” value worked out at 1300.
Turning to B7, the “PD1 Binding (HTRF signal)” value came out at 730.
On the same count and under the same terms, the value for B8 was 995.
Take B9: the “PD1 Binding (HTRF signal)” value was 1550.
With B10, the “PD1 Binding (HTRF signal)” value was 1240.
As for B11, the “PD1 Binding (HTRF signal)” value was 653.

The target in another experiment is T2, PD-L1 (Eu-labeled) (UniProt Q9NZQ7 19-238, limits assumed, Eu label).
T2 construct: also called Eu-labeled PD-L1
Kind of experiment: HTRF.
Protocol: The cell-free expression samples containing V5-tagged scFvs were serially diluted in a 384-well plate. […] Plates were incubated at room temperature for 2 hours and the HTRF signal was read on an Envision (Perkin Elmer) equipped with an HTRF laser module.
For the molecule B12, the “PDL1 Binding (HTRF signal)” value was determined as 2750.
Consider B13, for which the “PDL1 Binding (HTRF signal)” value came out at 2780.

A further experiment has as its target PD-1-Fc (UniProt Q15116 25-167, limits assumed). Kind of experiment: cell-based or functional assay.
B14: the “EC50 of IL-2 activity, HEK-Blue IL-2 reporter cells, IgG1 coated wells (no PD-1)” value is 419 pM and the “EC50 of IL-2 activity, HEK-Blue IL-2 reporter cells, PD-1 coated wells” value stood at 57 pM.

For the origin of these results see patent US20240024501A1 (BONUM THERAPEUTICS, published 2024).
